# Measurements published in patent US6767716B2, “Chemluminescent systems containing unsaturated 1,2-dioxetanes” (priority 2000, dated 2004).
# Experiment: Stability of diluted alkaline phosphatase in the enzyme diluent
# Assay type: physicochemical
# Conditions: ≅100 molecules of alkaline phosphatase per ml of diluent, stored at 4° C.
# Excerpt: As is known to those skilled in the art, the stability of the enzyme is the most important factor in the detection of biological molecules. The present invention utilizes a unique diluent or buffer based upon the composition of human blood serum. The present diluent is a tris-buffer containing proteins, metal halides such as sodium chloride, potassium chloride, magnesium chloride, zinc chloride, and the like, alcohols or polyhydric alcohols and sodium azide. The pH of the buffer is between 7.5 to 8.5.
substance,measurement,value
alkaline phosphatase,stability of enzyme in diluent,stable at least for one week
